Biological target: recombinant HIV-1 gp120 (American Biotechnology, Inc.) (HIV-1)
Test: ELISA on gp120-coated plates, culture medium

“Fab105-Protamine fusion protein (from UniProt P04553 1-51)” showed a binding activity against HIV gp120 in culture medium (µg/ml/24 hours) of 0.1.
